What was measured:
Assay in all cases: FACS on HEK293F [D00014 FIG. 10B]
[1] = biological target: HK68 H3m2-cl9+10+11+13 (influenza A virus H3N2, UniProt Q91MA7 17-566)
[2] = biological target: HK68 H3m2-cl9+10+11+12-tri (influenza A virus H3N2, UniProt Q91MA7 17-566)
[3] = biological target: H3 Full-length A/Hong Kong/1/1968 (influenza A virus H3N2, UniProt Q91MA7 17-566)
[4] = biological target: HK68 H3m2-cl9 (influenza A virus H3N2, UniProt Q91MA7 17-566)
[5] = biological target: HK68 H3m2-cl9+10 (influenza A virus H3N2, UniProt Q91MA7 17-566)
[6] = biological target: HK68 H3m2-cl9+10+11+12 (influenza A virus H3N2, UniProt Q91MA7 17-566)

Measured: binding result

B1: CR8057 (antibody, V domains shown)
VH: EVQLVESGGGLVQPGGSLRLSCAASGFTDSVIFMSWVRQAPGKGLECVSIIYIDDSTYYADSVKGRFTISRHNSMGTVFLEMNSLRPDDTAVYYCATESGDFGDQTGPYHYYAMDV
VL: QSALTQPASVSGSPGQSITISCTGSSGDIGGYNAVSWYQHHPGKAPKLMIYEVTSRPSGVSDRFSASRSGDTASLTVSGLQAEDEAHYYCCSFADSNILI
no binding (tested: 5 ug/ml): all assays above

Reference: patent US20160355553A1 (Janssen / Centocor, published 2016)
